Measured values: the supplement of paper PMC10567573

B1: TFE3 (parent)
chain: FHLGLEDILMEEEEGVVGGLSGGA
B2: LOC100129726 (parent)
chain: AKAADSPTRNDLESGLGHFSLRVH

Variants of: B1
Assay: protein stability index of a GFP-peptide fusion (GPS, HEK-293T) (PSI 1-6); higher = more stable
Conditions: c terminus: a fixed tail appended
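Further: lentivirally expressed fusions sorted by FACS into six bins by GFP to DsRed ratio, PSI derived from sequencing read proportions per bin multiplied by bin number.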

Compared with FHLGLEDILMEEEEGRVGGLSGGA [V16R], FHLGLEDILMEEEEGSVGGLSGGA [V16S] is higher in protein stability index: 3.52 for the first, 3.82 for the second.

Compared with FHLGLEDILMEEEEGPVGGLSGGA [V16P], FHLGLEDILMEEEEGTVGGLSGGA [V16T] is higher in protein stability index: 3.08 for the first, 4 for the second.

Going from FHLGLEDILMEEEEGNVGGLSGGA [V16N] to FHLGLEDILMEEEEGAVGGLSGGA [V16A], the protein stability index rises from 3.68 to 3.87.

Compared with FHLGLEDILMEEEEGLVGGLSGGA [V16L], FHLGLEDILMEEEEGQVGGLSGGA [V16Q] is higher in protein stability index: 2.77 for the first, 4.29 for the second.

Compared with FHLGLEDILMEEEEGGVGGLSGGA [V16G], FHLGLEDILMEEEEGWVGGLSGGA [V16W] is lower in protein stability index: 3.97 for the first, 3.33 for the second.

Compared with FHLGLEDILMEEEEGCVGGLSGGA [V16C], FHLGLEDILMEEEEGEVGGLSGGA [V16E] is higher in protein stability index: 4.07 for the first, 4.3 for the second.

First: FHLGLEDILMEEEEGVVGWLSGGA [G19W]
Second: FHLGLEDILMEEEEGVVGHLSGGA [G19H]
The protein stability index of the first is lower: 2.18 for the first, 3.47 for the second.

Going from FHLGLEDILMEEEEGVVGKLSGGA [G19K] to FHLGLEDILMEEEEGVVGYLSGGA [G19Y], the protein stability index falls from 3.34 to 2.67.

First: FHLGLEDILMEEEEGVVGALSGGA [G19A]
Second: FHLGLEDILMEEEEGVVGCLSGGA [G19C]
The protein stability index of the first is higher: 3.97 for the first, 3.43 for the second.

First: FHLGLEDILMEEEEGVVGILSGGA [G19I]
Second: FHLGLEDILMEEEEGVVGTLSGGA [G19T]
The protein stability index of the first is lower: 2.87 for the first, 3.48 for the second.

Compared with FHLGLEDILMEEEEGVVGQLSGGA [G19Q], FHLGLEDILMEEEEGVVGSLSGGA [G19S] is lower in protein stability index: 4.09 for the first, 3.28 for the second.

First: FHLGLEDILMEEEEGVVGPLSGGA [G19P]
Second: FHLGLEDILMEEEEGVVGMLSGGA [G19M]
The protein stability index of the first is lower: 3.52 for the first, 3.71 for the second.

First: FHLGLEDILMEEEEGVVGELSGGA [G19E]
Second: FHLGLEDILMEEEEGVVGDLSGGA [G19D]
The protein stability index of the first is lower: 4.32 for the first, 4.69 for the second.

Compared with FHLGLEDILMEEEEGVVGFLSGGA [G19F], FHLGLEDILMEEEEGVVGLLSGGA [G19L] is higher in protein stability index: 2.69 for the first, 3.25 for the second.

First: FHLGLEDILMEEEEGVVGNLSGGA [G19N]
Second: FHLGLEDILMEEEEGVVGVLSGGA [G19V]
The protein stability index of the first is higher: 3.84 for the first, 3.22 for the second.

First: FHLGLEDILMEEEEGVVGRLSGGA [G19R]
Second: FHLGLEDILMEEEEGVCGGLSGGA [V17C]
The protein stability index of the first is lower: 3.54 for the first, 4.01 for the second.

Compared with FHLGLEDILMEEEEGVTGGLSGGA [V17T], FHLGLEDILMEEEEGVNGGLSGGA [V17N] is higher in protein stability index: 3.95 for the first, 4.76 for the second.

First: FHLGLEDILMEEEEGVFGGLSGGA [V17F]
Second: FHLGLEDILMEEEEGVAGGLSGGA [V17A]
The protein stability index of the first is lower: 2.88 for the first, 3.54 for the second.

Compared with FHLGLEDILMEEEEGVYGGLSGGA [V17Y], FHLGLEDILMEEEEGVMGGLSGGA [V17M] is higher in protein stability index: 3.03 for the first, 3.46 for the second.

Compared with FHLGLEDILMEEEEGVSGGLSGGA [V17S], FHLGLEDILMEEEEGVHGGLSGGA [V17H] is lower in protein stability index: 4.13 for the first, 3.7 for the second.

Compared with FHLGLEDILMEEEEGVGGGLSGGA [V17G], FHLGLEDILMEEEEGVKGGLSGGA [V17K] is higher in protein stability index: 3.15 for the first, 3.77 for the second.

First: FHLGLEDILMEEEEGVPGGLSGGA [V17P]
Second: FHLGLEDILMEEEEGVQGGLSGGA [V17Q]
The protein stability index of the first is lower: 3.63 for the first, 3.69 for the second.

First: FHLGLEDILMEEEEGVDGGLSGGA [V17D]
Second: FHLGLEDILMEEEEGVEGGLSGGA [V17E]
The protein stability index of the first is higher: 4.44 for the first, 3.64 for the second.

First: FHLGLEDILMEEEEGVRGGLSGGA [V17R]
Second: FHLGLEDILMEEEEGVWGGLSGGA [V17W]
The protein stability index of the first is higher: 3.8 for the first, 2.72 for the second.

First: FHLGLEDILMEEEEGVIGGLSGGA [V17I]
Second: FHLGLEDILMEEEEGVLGGLSGGA [V17L]
The protein stability index of the first is higher: 3.92 for the first, 3.61 for the second.

Compared with FHLGLEDILMEEEEGVVGGLSNGA [G22N], FHLGLEDILMEEEEGVVGGLSIGA [G22I] is lower in protein stability index: 3.72 for the first, 3.19 for the second.

First: FHLGLEDILMEEEEGVVGGLSYGA [G22Y]
Second: FHLGLEDILMEEEEGVVGGLSSGA [G22S]
The protein stability index of the first is lower: 2.28 for the first, 3.57 for the second.

Compared with FHLGLEDILMEEEEGVVGGLSAGA [G22A], FHLGLEDILMEEEEGVVGGLSLGA [G22L] is lower in protein stability index: 3.81 for the first, 3.31 for the second.

Going from FHLGLEDILMEEEEGVVGGLSDGA [G22D] to FHLGLEDILMEEEEGVVGGLSWGA [G22W], the protein stability index falls from 3.5 to 2.85.

Compared with FHLGLEDILMEEEEGVVGGLSTGA [G22T], FHLGLEDILMEEEEGVVGGLSCGA [G22C] is lower in protein stability index: 4.26 for the first, 3.3 for the second.

Going from FHLGLEDILMEEEEGVVGGLSHGA [G22H] to FHLGLEDILMEEEEGVVGGLSKGA [G22K], the protein stability index rises from 3.8 to 4.05.

Compared with FHLGLEDILMEEEEGVVGGLSEGA [G22E], FHLGLEDILMEEEEGVVGGLSQGA [G22Q] is lower in protein stability index: 4.01 for the first, 3.67 for the second.

Going from FHLGLEDILMEEEEGVVGGLSMGA [G22M] to FHLGLEDILMEEEEGVVGGLSPGA [G22P], the protein stability index rises from 3.59 to 3.64.

Compared with FHLGLEDILMEEEEGVVGGLSFGA [G22F], FHLGLEDILMEEEEGVVGGLSVGA [G22V] is higher in protein stability index: 3.34 for the first, 3.9 for the second.

Going from FHLGLEDILMEEEEGVVGGLSRGA [G22R] to FHLGLEDILMEEEEGVVHGLSGGA [G18H], the protein stability index rises from 3.39 to 3.66.

Compared with FHLGLEDILMEEEEGVVRGLSGGA [G18R], FHLGLEDILMEEEEGVVVGLSGGA [G18V] is higher in protein stability index: 3.72 for the first, 3.93 for the second.

Compared with FHLGLEDILMEEEEGVVFGLSGGA [G18F], FHLGLEDILMEEEEGVVCGLSGGA [G18C] is higher in protein stability index: 2.77 for the first, 3.76 for the second.

Going from FHLGLEDILMEEEEGVVNGLSGGA [G18N] to FHLGLEDILMEEEEGVVYGLSGGA [G18Y], the protein stability index falls from 3.77 to 3.23.

Compared with FHLGLEDILMEEEEGVVKGLSGGA [G18K], FHLGLEDILMEEEEGVVSGLSGGA [G18S] is higher in protein stability index: 2.99 for the first, 3.27 for the second.

Compared with FHLGLEDILMEEEEGVVIGLSGGA [G18I], FHLGLEDILMEEEEGVVPGLSGGA [G18P] is higher in protein stability index: 3.35 for the first, 3.85 for the second.

Compared with FHLGLEDILMEEEEGVVMGLSGGA [G18M], FHLGLEDILMEEEEGVVTGLSGGA [G18T] is lower in protein stability index: 3.6 for the first, 3.5 for the second.

Compared with FHLGLEDILMEEEEGVVEGLSGGA [G18E], FHLGLEDILMEEEEGVVAGLSGGA [G18A] is lower in protein stability index: 4.1 for the first, 3.64 for the second.

Compared with FHLGLEDILMEEEEGVVQGLSGGA [G18Q], FHLGLEDILMEEEEGVVWGLSGGA [G18W] is lower in protein stability index: 4.23 for the first, 3.06 for the second.

First: FHLGLEDILMEEEEGVVLGLSGGA [G18L]
Second: FHLGLEDILMEEEEGVVDGLSGGA [G18D]
The protein stability index of the first is lower: 3.3 for the first, 4.06 for the second.

Variants of: B2
Assay: as above
Conditions: c terminus: a fixed tail appended

First: EKAADSPTRNDLESGLGHFSLRVH [A1E]
Second: HKAADSPTRNDLESGLGHFSLRVH [A1H]
The protein stability index of the first is higher: 3.47 for the first, 3.27 for the second.

Compared with DKAADSPTRNDLESGLGHFSLRVH [A1D], GKAADSPTRNDLESGLGHFSLRVH [A1G] is lower in protein stability index: 3.88 for the first, 3.1 for the second.

Going from CKAADSPTRNDLESGLGHFSLRVH [A1C] to FKAADSPTRNDLESGLGHFSLRVH [A1F], the protein stability index rises from 2.1 to 2.6.
